This data set concerns the molecule itself. Nature of the data set: native gel or EMSA.

As a reminder, the stoichiometry N is the number of molecules, sites or subunits per partner or assembly.

B1: Ugo1 (natural protein)
chain: MNNNNVTEATSRAQIRPYYDPDSFNAGYSAVFKPDEGVVDPHGYTIASKLNVINSSPTTKRMANALFKSSPMKKLSNSVNDGLSLEGSNGEITGLNNFEWAELVNIQKWRKIFEQLLDMFFRKYFQLLIQQPFDVARLLIQVGEFKIFKTTVDTNKPQAPIILRDEEGDGAAREGEEDAYDEEEIDFFPIERKIAEANSTAPIMAEETDHSHHEPTDISLTIAPQSLHTIDVINALFDQEGIRGLWKANNTTFIYNFLSLSIDTWFTGLLSSFLGVPDPYFMEVINSPDISKSFILALGAGVFTSIILLPVDLIRTRLIVTSFKKKKNVKTDGKNMVTNTRSLRQLIRCWSWRKNGVSIPLDMWSLTILQSINNSFFNKLFDLVIYNQFHIEKYSQTVMYNTMKFFSKSLELFIKLPLENLLRRCQLNYLLNDQRLSFKVDSTELIVKPKKYNGIWDVIRNNSNTNRGQLWNGWKVGVISLICGYGLQMMNKVDINMEQEKF
With B1, the “stoichiometry N” value was determined as 2.

The values above are taken from PMC2654124 (The Journal of Cell Biology, 2009).
